Data as given in patent US20250011453A1, “METHODS FOR TREATING CANCER USING A COMBINATION OF A PD-1 ANTAGONIST, AN ILT4 ANTAGONIST, AND CHEMOTHERAPEUTIC AGENTS” (Merck Sharp & Dohme LLC, priority 2021, published 2025).

Assay: Phase 1 open label, multi-arm, multi-center study of MK-4830 as monotherapy or in combination with pembrolizumab (NCT03564691): safety and tolerability
Format: in vivo, human

With “MK-4830: anti-ILT4 antibody; light chain SEQ ID NO:5, heavy chain SEQ ID NO:10 (Table 4)” the “Grade 3 drug-related AE” value (1600 mg dose level, MK-4830 monotherapy cohort) was “one episode of transient Grade 3 blood pressure increase”, the “participants with one or more drug-related AEs” value (51 treated participants (monotherapy and pembrolizumab combination pooled), preliminary data, majority Grade 1) was 51% and the “Grade 4 or 5 drug-related AEs or SAEs” value (all participants (51 treated), preliminary data) was “no Grade 4 or 5 drug-related AEs or SAEs”. The “target dose limiting toxicity (DLT) rate” value (participants with advanced solid tumors, MK-4830 monotherapy up to 1600 mg and MK-4830 up to 800 mg plus pembrolizumab, May 10, 2019 data cutoff) was “not reached in any of the cohorts”.
